How the values were obtained:
[1] = molecular target: T1, FcγRIa (human, UniProt P12314 16-292); experiment: SPR (Biacore); He/Con_1a divided by He/Con_2b (binding to FcγRIa against binding to FcγRIIb)
T1 construct: extracellular domain; Soluble extracellular domain with C-terminal His tag, used as analyte in Biacore; also called FcgRI; 1a; not shown: His tag attached to the C terminus
Experimental: The heterodimerized antibodies He Abs in which one of the H chains was introduced with an alteration were assayed for their binding activities to each activating FcγR and inhibitory FcγR according to the method described in Example 4. […] The activating FcγRs in FIGS. 26, 27, 28, and 29 are FcγRIa, FcγRIIa (R), FcγRIIa (H), and FcγRIIIa, respectively.
Analysis of interaction between objective antibody and the FcγR was carried out using Biacore T100 (GE Healthcare). HBS-EP+ (GE Healthcare) was used as the running buffer, and the measurement temperature was set to 25° C. Chips produced by immobilizing the antigen peptide by the amine coupling method to a Series S Sencor Chip CM5 (GE Healthcare), or alternatively, chips produced by allowing preliminarily biotinylated antigen peptides to interact with and immobilize onto a Series S Sensor Chip SA (certified) (GE Healthcare) were used. Antibodies of interest were captured onto an antigen peptide-immobilized chip, and allowed to interact to each FcγR diluted with running buffer. To regenerate and repeatedly use the chip, the antibodies captured on the chip were washed off by reacting 10 mM glycine-HCl, pH 1.5.

[2] = molecular target: T1, FcγRIa; experiment: SPR (Biacore), antibody captured, FcγR as analyte; relative to GpH7-A5/GpH7-B3/GpL16-k0 = 100
[3] = molecular target: T2, FcγRIIb (human, UniProt P31994 43-217); experiment: as above
T2 construct: extracellular domain; Soluble extracellular domain with C-terminal His tag, used as analyte in Biacore; also called FcgRIIb; 2b; not shown: His tag attached to the C terminus
T2 sequence (looked up): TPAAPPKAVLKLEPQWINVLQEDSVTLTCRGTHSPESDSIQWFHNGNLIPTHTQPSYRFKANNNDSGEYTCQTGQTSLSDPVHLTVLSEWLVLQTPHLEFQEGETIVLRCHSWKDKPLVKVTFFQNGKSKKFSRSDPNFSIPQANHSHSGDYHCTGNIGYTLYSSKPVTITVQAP

T1 sequence (P12314 16-292): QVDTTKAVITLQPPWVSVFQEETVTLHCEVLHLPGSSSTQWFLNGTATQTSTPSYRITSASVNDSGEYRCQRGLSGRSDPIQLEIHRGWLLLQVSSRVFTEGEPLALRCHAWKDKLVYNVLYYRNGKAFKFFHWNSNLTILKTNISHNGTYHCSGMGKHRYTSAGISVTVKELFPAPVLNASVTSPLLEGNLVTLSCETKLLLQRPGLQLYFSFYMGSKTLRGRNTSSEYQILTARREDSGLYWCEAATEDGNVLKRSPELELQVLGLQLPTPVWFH

Row | Binder | He_1a/2b (Ia/IIb) [1] [ratio] | He/Con_1a [2] | He/Con_2b [3]
1 | GpH7-A5/GpH7-B3 variant S239_10E/GpL16-k0 (antibody, human IgG1, kappa, Heterodimerized anti-glypican-3 IgG1; alteration in the GpH7-B3 chain only; also called He Ab) heavy 1: not shown heavy 2: not shown light: DIVMTQSPLSLPVTPGEPASISCQASESLVHSNRNTYLHWYLQKPGQSPQLLIYKVSNRFSGVPDRFSGSGSGTDFTLKISRVEAEDVGVYYCSQNTHVPPTFGQGTKVEIERTVAAPSVFIFPPSDEQLKSGTASVVCLLNNFYPREAKVQWKVDNALQSGNSQESVTEQDSKDSTYSLSSTLTLSKADYEKHKVYACEVTHQGLSSPVTKSFNRGEC | 0.58 | 105 % of control (=100) | 181 % of control (=100)
2 | GpH7-A5/GpH7-B3 variant P238_10E/GpL16-k0 (antibody, human IgG1, kappa, Heterodimerized anti-glypican-3 IgG1; alteration in the GpH7-B3 chain only; also called He Ab) heavy 1: not shown heavy 2: not shown light: DIVMTQSPLSLPVTPGEPASISCQASESLVHSNRNTYLHWYLQKPGQSPQLLIYKVSNRFSGVPDRFSGSGSGTDFTLKISRVEAEDVGVYYCSQNTHVPPTFGQGTKVEIERTVAAPSVFIFPPSDEQLKSGTASVVCLLNNFYPREAKVQWKVDNALQSGNSQESVTEQDSKDSTYSLSSTLTLSKADYEKHKVYACEVTHQGLSSPVTKSFNRGEC | 0.44 | 102 % of control (=100) | 232 % of control (=100)
3 | GpH7-A5/GpH7-B3 variant L235_20W/GpL16-k0 (antibody, human IgG1, kappa, Heterodimerized anti-glypican-3 IgG1; alteration in the GpH7-B3 chain only; also called He Ab) heavy 1: not shown heavy 2: not shown light: DIVMTQSPLSLPVTPGEPASISCQASESLVHSNRNTYLHWYLQKPGQSPQLLIYKVSNRFSGVPDRFSGSGSGTDFTLKISRVEAEDVGVYYCSQNTHVPPTFGQGTKVEIERTVAAPSVFIFPPSDEQLKSGTASVVCLLNNFYPREAKVQWKVDNALQSGNSQESVTEQDSKDSTYSLSSTLTLSKADYEKHKVYACEVTHQGLSSPVTKSFNRGEC | 0.63 | 92.8 % of control (=100) | 147 % of control (=100)
4 | GpH7-A5/GpH7-B3 variant V266_06M/GpL16-k0 (antibody, human IgG1, kappa, Heterodimerized anti-glypican-3 IgG1; alteration in the GpH7-B3 chain only; also called He Ab) heavy 1: not shown heavy 2: not shown light: DIVMTQSPLSLPVTPGEPASISCQASESLVHSNRNTYLHWYLQKPGQSPQLLIYKVSNRFSGVPDRFSGSGSGTDFTLKISRVEAEDVGVYYCSQNTHVPPTFGQGTKVEIERTVAAPSVFIFPPSDEQLKSGTASVVCLLNNFYPREAKVQWKVDNALQSGNSQESVTEQDSKDSTYSLSSTLTLSKADYEKHKVYACEVTHQGLSSPVTKSFNRGEC | 0.4 | 99.7 % of control (=100) | 251 % of control (=100)
5 | GpH7-A5/GpH7-B3 variant G237_20W/GpL16-k0 (antibody, human IgG1, kappa, Heterodimerized anti-glypican-3 IgG1; alteration in the GpH7-B3 chain only; also called He Ab) heavy 1: not shown heavy 2: not shown light: DIVMTQSPLSLPVTPGEPASISCQASESLVHSNRNTYLHWYLQKPGQSPQLLIYKVSNRFSGVPDRFSGSGSGTDFTLKISRVEAEDVGVYYCSQNTHVPPTFGQGTKVEIERTVAAPSVFIFPPSDEQLKSGTASVVCLLNNFYPREAKVQWKVDNALQSGNSQESVTEQDSKDSTYSLSSTLTLSKADYEKHKVYACEVTHQGLSSPVTKSFNRGEC | 0.41 | 78.4 % of control (=100) | 193 % of control (=100)
6 | GpH7-A5/GpH7-B3 variant S239_09D/GpL16-k0 (antibody, human IgG1, kappa, Heterodimerized anti-glypican-3 IgG1; alteration in the GpH7-B3 chain only; also called He Ab) heavy 1: not shown heavy 2: not shown light: DIVMTQSPLSLPVTPGEPASISCQASESLVHSNRNTYLHWYLQKPGQSPQLLIYKVSNRFSGVPDRFSGSGSGTDFTLKISRVEAEDVGVYYCSQNTHVPPTFGQGTKVEIERTVAAPSVFIFPPSDEQLKSGTASVVCLLNNFYPREAKVQWKVDNALQSGNSQESVTEQDSKDSTYSLSSTLTLSKADYEKHKVYACEVTHQGLSSPVTKSFNRGEC | 0.49 | 101 % of control (=100) | 206 % of control (=100)
7 | GpH7-A5/GpH7-B3 variant P238_15Y/GpL16-k0 (antibody, human IgG1, kappa, Heterodimerized anti-glypican-3 IgG1; alteration in the GpH7-B3 chain only; also called He Ab) heavy 1: not shown heavy 2: not shown light: DIVMTQSPLSLPVTPGEPASISCQASESLVHSNRNTYLHWYLQKPGQSPQLLIYKVSNRFSGVPDRFSGSGSGTDFTLKISRVEAEDVGVYYCSQNTHVPPTFGQGTKVEIERTVAAPSVFIFPPSDEQLKSGTASVVCLLNNFYPREAKVQWKVDNALQSGNSQESVTEQDSKDSTYSLSSTLTLSKADYEKHKVYACEVTHQGLSSPVTKSFNRGEC | 0.46 | 101 % of control (=100) | 218 % of control (=100)
8 | GpH7-A5/GpH7-B3 variant P238_09D/GpL16-k0 (antibody, human IgG1, kappa, Heterodimerized anti-glypican-3 IgG1; alteration in the GpH7-B3 chain only; also called He Ab) heavy 1: not shown heavy 2: not shown light: DIVMTQSPLSLPVTPGEPASISCQASESLVHSNRNTYLHWYLQKPGQSPQLLIYKVSNRFSGVPDRFSGSGSGTDFTLKISRVEAEDVGVYYCSQNTHVPPTFGQGTKVEIERTVAAPSVFIFPPSDEQLKSGTASVVCLLNNFYPREAKVQWKVDNALQSGNSQESVTEQDSKDSTYSLSSTLTLSKADYEKHKVYACEVTHQGLSSPVTKSFNRGEC | 0.43 | 96 % of control (=100) | 221 % of control (=100)
9 | GpH7-A5/GpH7-B3 variant S239_01G/GpL16-k0 (antibody, human IgG1, kappa, Heterodimerized anti-glypican-3 IgG1; alteration in the GpH7-B3 chain only; also called He Ab) heavy 1: not shown heavy 2: not shown light: DIVMTQSPLSLPVTPGEPASISCQASESLVHSNRNTYLHWYLQKPGQSPQLLIYKVSNRFSGVPDRFSGSGSGTDFTLKISRVEAEDVGVYYCSQNTHVPPTFGQGTKVEIERTVAAPSVFIFPPSDEQLKSGTASVVCLLNNFYPREAKVQWKVDNALQSGNSQESVTEQDSKDSTYSLSSTLTLSKADYEKHKVYACEVTHQGLSSPVTKSFNRGEC | 0.7 | 101 % of control (=100) | 144 % of control (=100)

Source: patent publication US20150344570A1 (published 2015)
